Patent publication US20240100162A1

B1: TCR3 (TCR)
TCR alpha: AQKVTQAQTEISVVEKEDVTLDCVYETRDTTYYLFWYKQPPSGELVFLIRRNSFDEQNEISGRYSWNFQKSTSSFNFTITASQVVDSAVYFCALSVLRMDSSYKLIFGSGTRLLVRPDIQNPDPAVYQLRDSKSSDKSVCLFTDFDSQTNVSQSKDSDVYITDKTVLDMRSMDFKSNSAVAWSNKSDFACANAFNNSIIPEDTFFPSPESSCDVKLVEKSFETDTNLNFQNLSVIGFRILLLKVAGFNLLMTLRLWSS
TCR beta: NAGVTQTPKFRVLKTGQSMTLLCAQDMNHEYMYWYRQDPGMGLRLIHYSVGEGTTAKGEVPDGYNVSRLKKQNFLLGLESAAPSQTSVYFCASSLQGAGQPQHFGDGTRLSILEDLNKVFPPEVAVFEPSEAEISHTQKATLVCLATGFFPDHVELSWWVNGKEVHSGVSTDPQPLKEQPALNDSRYCLSSRLRVSATFWQNPRNHFRCQVQFYGLSENDEWTQDRAKPVTQIVSAEAWGRADCGFTSVSYQQGVLSATILYEILLGKATLYAVLVSALVLMAMVKRKDF
B2: TCR1 (TCR)
TCR alpha: KQEVTQIPAALSVPEGENLVLNCSFTDSAIYNLQWFRQDPGKGLTSLLLIQSSQREQTSGRLNASLDKSSGRSTLYIAASQPGDSATYLCAAMKTSYDKVIFGPGTSLSVIPNIQNPDPAVYQLRDSKSSDKSVCLFTDFDSQTNVSQSKDSDVYITDKTVLDMRSMDFKSNSAVAWSNKSDFACANAFNNSIIPEDTFFPSPESSCDVKLVEKSFETDTNLNFQNLSVIGFRILLLKVAGFNLLMTLRLWSS
TCR beta: GEEVAQTPKHLVRGEGQKAKLYCAPIKGHSYVFWYQQVLKNEFKFLISFQNENVFDETGMPKERFSAKCLPNSPCSLEIQATKLEDSAVYFCASSQGQGGYGYTFGSGTRLTVVEDLNKVFPPEVAVFEPSEAEISHTQKATLVCLATGFFPDHVELSWWVNGKEVHSGVSTDPQPLKEQPALNDSRYCLSSRLRVSATFWQNPRNHFRCQVQFYGLSENDEWTQDRAKPVTQIVSAEAWGRADCGFTSVSYQQGVLSATILYEILLGKATLYAVLVSALVLMAMVKRKDF
B3: TCR2 (TCR)
TCR alpha: QKEVEQNSGPLSVPEGAIASLNCTYSDRGSQSFFWYRQYSGKSPELIMSIYSNGDKEDGRFTAQLNKASQYVSLLIRDSQPSDSATYLCAVNIPFSNSGGYQKVTFGTGTKLQVIPNIQNPDPAVYQLRDSKSSDKSVCLFTDFDSQTNVSQSKDSDVYITDKTVLDMRSMDFKSNSAVAWSNKSDFACANAFNNSIIPEDTFFPSPESSCDVKLVEKSFETDTNLNFQNLSVIGFRILLLKVAGFNLLMTLRLWSS
TCR beta: NAGVTQTPKFRVLKTGQSMTLLCAQDMNHEYMYWYRQDPGMGLRLIHYSVGEGTTAKGEVPDGYNVSRLKKQNFLLGLESAAPSQTSVYFCASRHPGQYNQPQHFGDGTRLSILEDLNKVFPPEVAVFEPSEAEISHTQKATLVCLATGFFPDHVELSWWVNGKEVHSGVSTDPQPLKEQPALNDSRYCLSSRLRVSATFWQNPRNHFRCQVQFYGLSENDEWTQDRAKPVTQIVSAEAWGRADCGFTSVSYQQGVLSATILYEILLGKATLYAVLVSALVLMAMVKRKDF

Target: highly frequent MHC Class I alleles in major US ethnic groups, including 38 HLA-A, 40 HLA-B, and 24 HLA-C alleles, on a panel of 34 BLCLs
Assay: cell-based or functional assay

Which cytokine (IFNg, TNFa, IL-12p70) and granzyme B production in co-culture with BLCLs, fold over IL12-RFP control T cells does the source give for B1 here?
The cytokine (IFNg, TNFa, IL-12p70) and granzyme B production in co-culture with BLCLs, fold over IL12-RFP control T cells was less than 4 fold.

Which cytokine (IFNg, TNFa, IL-12p70) and granzyme B production in co-culture with BLCLs, fold over IL12-RFP control T cells does the source give for B2 here?
The cytokine (IFNg, TNFa, IL-12p70) and granzyme B production in co-culture with BLCLs, fold over IL12-RFP control T cells was less than 4 fold.

B3 was tested. Which cytokine (IFNg, TNFa, IL-12p70) and granzyme B production in co-culture with BLCLs, fold over IL12-RFP control T cells did it give?
Its cytokine (IFNg, TNFa, IL-12p70) and granzyme B production in co-culture with BLCLs, fold over IL12-RFP control T cells is less than 4 fold.
